Changes are numbered by the printed parent chain.
Legend:
Assay in all cases: SPR, antibody captured, C2 as analyte;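 further: biacore SPR at 37 °C, anti-C2 mAbs captured via goat anti-human IgG on CM5 chips, double-referenced sensorgrams fit to a 1:1 kinetic or steady-state model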
human C2 A472S = target: T1, human C2 A472S (human, UniProt P06681 21-752)
T1 sequence: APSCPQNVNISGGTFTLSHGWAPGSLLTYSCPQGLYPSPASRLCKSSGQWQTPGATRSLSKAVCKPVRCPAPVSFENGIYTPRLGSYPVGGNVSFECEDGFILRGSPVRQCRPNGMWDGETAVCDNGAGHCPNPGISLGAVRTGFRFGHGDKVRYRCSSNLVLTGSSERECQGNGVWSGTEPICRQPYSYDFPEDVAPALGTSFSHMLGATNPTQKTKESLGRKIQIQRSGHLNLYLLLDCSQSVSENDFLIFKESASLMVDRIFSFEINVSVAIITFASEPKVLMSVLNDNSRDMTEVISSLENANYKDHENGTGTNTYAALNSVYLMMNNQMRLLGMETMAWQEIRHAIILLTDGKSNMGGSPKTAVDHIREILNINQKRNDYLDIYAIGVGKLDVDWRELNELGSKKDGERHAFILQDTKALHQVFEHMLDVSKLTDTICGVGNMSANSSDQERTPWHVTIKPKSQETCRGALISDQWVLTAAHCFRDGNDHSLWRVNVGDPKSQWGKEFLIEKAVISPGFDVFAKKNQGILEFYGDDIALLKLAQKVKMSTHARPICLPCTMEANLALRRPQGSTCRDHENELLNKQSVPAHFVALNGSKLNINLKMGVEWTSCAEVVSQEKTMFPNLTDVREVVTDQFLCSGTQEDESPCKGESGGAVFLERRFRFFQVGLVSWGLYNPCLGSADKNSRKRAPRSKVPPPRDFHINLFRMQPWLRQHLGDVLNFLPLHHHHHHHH

human C2 A709S = target: T2, human C2 A709S (human, UniProt P06681 21-752)
T2 sequence: T1 sequence with S452A, A689S

human C2 P724A = target: T3, human C2 P724A (human, UniProt P06681 21-752)
T3 sequence: T1 sequence with S452A, P704A

human C2 D269A = target: T4, human C2 D269A (human, UniProt P06681 21-752)
T4 sequence: T1 sequence with D249A, S452A

B1: RF16-226 (antibody, human IgG4 S228P, lambda)
heavy: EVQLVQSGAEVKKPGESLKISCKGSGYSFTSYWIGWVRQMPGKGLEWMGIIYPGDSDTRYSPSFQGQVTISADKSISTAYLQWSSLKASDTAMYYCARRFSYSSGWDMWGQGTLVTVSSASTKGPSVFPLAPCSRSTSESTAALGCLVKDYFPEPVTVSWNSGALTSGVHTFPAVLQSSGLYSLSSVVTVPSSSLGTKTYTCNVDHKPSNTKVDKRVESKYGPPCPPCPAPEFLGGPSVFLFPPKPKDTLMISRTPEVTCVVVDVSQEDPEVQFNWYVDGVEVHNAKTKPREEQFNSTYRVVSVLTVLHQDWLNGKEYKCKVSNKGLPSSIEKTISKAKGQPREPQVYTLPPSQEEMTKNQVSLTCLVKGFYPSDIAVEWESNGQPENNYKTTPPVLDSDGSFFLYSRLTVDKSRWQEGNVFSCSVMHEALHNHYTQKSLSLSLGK
light: SYELTQPPSVSVSPGQTARITCSGDALTSKYVAWYQQKSGLAPLLVIYEDTRRPSGIPAKFSGSSSGSVATLTISGAHGDDEADYYCYSTDASGHQRVFGGGTKLTVLSQPKAAPSVTLFPPSSEELQANKATLVCLISDFYPGAVTVAWKADGSPVKAGVETTKPSKQSNNKYAASSYLSLTPEQWKSHRSYSCQVTHEGSTVEKTVAPTECS
notes: pH-dependent anti-C2 antibody from a phage display library; also called WT
What does the source list for B1?
Kd (human C2 A472S): 53 nM; Kd (human C2 A709S): 127 nM; Kd (human C2 P724A): 397 nM; Kd (human C2 D269A): 13.1 nM

From patent publication US20220332804A1 (CSL INNOVATION, published 2022)
